Patent US20240190962A1 (IMMUNOWAKE, published 2024)
Where a chain is given by its changes, count along the chain named. Numbers in names are those of the source. Read-outs that look alike come from different tables or passages of the source. Values belong to the binder of their own block, whether it stands above or below them.

Assays:
[1] = target: T1, human IL-2 receptor (IL-2Rα, IL-2Rβ, IL-2Rγ) (human, UniProt P01589 22-272; P14784 27-551; P31785 23-369); test: cell-based or functional assay
T1 sequence (looked up) 1: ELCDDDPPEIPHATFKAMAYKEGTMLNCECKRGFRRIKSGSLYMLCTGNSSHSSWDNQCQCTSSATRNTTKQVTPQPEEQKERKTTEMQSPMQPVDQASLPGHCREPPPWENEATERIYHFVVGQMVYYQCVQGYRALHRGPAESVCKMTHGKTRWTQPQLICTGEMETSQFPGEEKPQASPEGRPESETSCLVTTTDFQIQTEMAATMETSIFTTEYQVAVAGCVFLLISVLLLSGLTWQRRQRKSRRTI
T1 sequence (looked up) 2: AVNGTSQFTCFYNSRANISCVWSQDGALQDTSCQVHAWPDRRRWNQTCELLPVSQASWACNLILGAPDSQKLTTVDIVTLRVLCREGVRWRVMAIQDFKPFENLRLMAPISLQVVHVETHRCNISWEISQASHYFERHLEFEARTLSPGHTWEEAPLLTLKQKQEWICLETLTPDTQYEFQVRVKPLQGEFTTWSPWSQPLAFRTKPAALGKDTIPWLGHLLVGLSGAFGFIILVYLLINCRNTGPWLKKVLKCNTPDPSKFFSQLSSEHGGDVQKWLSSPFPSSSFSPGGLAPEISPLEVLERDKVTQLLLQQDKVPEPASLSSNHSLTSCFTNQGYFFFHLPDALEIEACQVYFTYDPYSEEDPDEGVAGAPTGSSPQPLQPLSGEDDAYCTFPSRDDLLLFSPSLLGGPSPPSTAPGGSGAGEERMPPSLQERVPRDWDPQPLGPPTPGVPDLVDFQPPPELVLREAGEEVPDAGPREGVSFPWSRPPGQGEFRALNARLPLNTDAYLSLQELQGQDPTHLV
T1 sequence (looked up) 3: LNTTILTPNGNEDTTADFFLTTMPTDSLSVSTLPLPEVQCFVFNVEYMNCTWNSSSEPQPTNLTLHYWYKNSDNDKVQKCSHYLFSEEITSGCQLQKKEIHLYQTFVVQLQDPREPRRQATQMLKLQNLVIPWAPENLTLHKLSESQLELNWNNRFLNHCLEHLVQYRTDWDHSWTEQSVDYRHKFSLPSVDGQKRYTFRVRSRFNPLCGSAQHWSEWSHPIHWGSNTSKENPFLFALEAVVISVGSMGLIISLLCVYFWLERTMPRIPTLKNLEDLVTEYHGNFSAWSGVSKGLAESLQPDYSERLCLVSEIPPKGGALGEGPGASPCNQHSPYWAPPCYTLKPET

CD4 on CD4+ T cells = target: T2, CD4 on CD4+ T cells (UniProt P01730 26-458, limits assumed); test: FACS
T2 construct: whole, on cells

[2] = target: human IL-12 receptor complex (IL-12Rβ1, IL-12Rβ2) (human, UniProt P42701 24-662; Q99665 24-862); test: cell-based or functional assay
[3] = target: T1, human IL-2 receptor (IL-2Rα, IL-2Rβ, …); test: cell-based or functional assay; remark: listed apart in the source

Sequence of human IL-12 receptor complex (IL-12Rβ1, IL-12Rβ2) (Q99665 24-862, chain 2 of 2, other chains not shown): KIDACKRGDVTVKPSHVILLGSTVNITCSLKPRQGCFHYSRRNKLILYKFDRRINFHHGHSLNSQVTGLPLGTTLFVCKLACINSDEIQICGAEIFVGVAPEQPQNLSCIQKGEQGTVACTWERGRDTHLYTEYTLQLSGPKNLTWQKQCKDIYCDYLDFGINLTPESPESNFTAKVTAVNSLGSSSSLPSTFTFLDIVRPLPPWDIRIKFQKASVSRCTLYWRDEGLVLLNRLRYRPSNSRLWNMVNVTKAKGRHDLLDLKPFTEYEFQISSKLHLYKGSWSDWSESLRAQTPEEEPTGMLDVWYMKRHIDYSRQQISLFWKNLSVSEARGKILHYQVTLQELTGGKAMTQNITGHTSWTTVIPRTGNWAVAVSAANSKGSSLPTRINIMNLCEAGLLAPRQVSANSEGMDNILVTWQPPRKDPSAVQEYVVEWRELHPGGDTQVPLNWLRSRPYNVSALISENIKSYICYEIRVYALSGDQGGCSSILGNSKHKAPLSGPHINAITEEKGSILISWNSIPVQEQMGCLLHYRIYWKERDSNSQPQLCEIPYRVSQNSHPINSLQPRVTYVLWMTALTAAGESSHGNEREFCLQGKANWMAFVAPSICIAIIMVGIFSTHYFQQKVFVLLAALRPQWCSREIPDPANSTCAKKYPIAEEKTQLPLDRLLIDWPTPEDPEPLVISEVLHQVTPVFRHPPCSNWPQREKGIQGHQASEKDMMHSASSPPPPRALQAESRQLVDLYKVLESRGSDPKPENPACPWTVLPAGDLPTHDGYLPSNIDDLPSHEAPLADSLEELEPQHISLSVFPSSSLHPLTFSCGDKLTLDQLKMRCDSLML

B1: Fab-IL-2 mutant-Fc-CD3 Ab (other)
light: EIVMTQSPGTLSLSPGESATLSCSASLSVSFMHWFQQKPGHAPRLLIYRTSNLASGVPDRFSGSGSGTDFTLTISRLEPEDFAVYYCQQRSSDPPTFGQGTRLEIKRTVAAPSVFIFPPSDEQLKSGTASVVCLLNNFYPREAKVQWKVDNALQSGNSQESVTEQDSKDSTYSLSSTLTLSKADYEKHKVYACEVTHQGLSSPVTKSFNRGEC
heavy 1: EVQLVESGGGLVQPGRSLRLSCTASGFTFSYFWMNWVRQAPGKGLEWVGEIRLRSDNYATHYAESVKGRFTISRDDSKSIAYLQMNSLKTEDTALYYCTRDWEFTYWGQGTTVTVSSASTKGPSVFPLAPSSKSTSGGTAALGCLVKDYFPEPVTVSWNSGALTSGVHTFPAVLQSSGLYSLSSVVTVPSSSLGTQTYICNVNHKPSNTKVDKKVEPKSCDKTHTCPPCPAPEKKGGPSVFLFPPKPKDTLMISRTPEVTCVVVDVSHEDPEVKFNWYVDGVEVHNAKTKPREEQYNSTYRVVSVLTVLHQDWLNGKEYKCKVSNKALPAPIEKTISKAKGQPREPQVYVLPPSREEMTKNQVSLLCLVKGFYPSDIAVEWESNGQPENRYMTWPPVLDSDGSFFLYSKLTVDKSRWQQGNVFSCSVMHEALHNHYTQKSLSLSPGK
heavy 2: EVQLVESGGGLVQPGRSLRLSCTASGFTFSYFWMNWVRQAPGKGLEWVGEIRLRSDNYATHYAESVKGRFTISRDDSKSIAYLQMNSLKTEDTALYYCTRDWEFTYWGQGTTVTVSSASTKGPSVFPLAPSSKSTSGGTAALGCLVKDYFPEPVTVSWNSGALTSGVHTFPAVLQSSGLYSLSSVVTVPSSSLGTQTYICNVNHKPSNTKVDKKVEPKSCDKPAPTSSSTKKTQLQLEHLLLDLQMILNGINNYKNPKLTDMLTFEFYMPKKATELKHLQCLERELKPLEEVLNLAQSKNFHLRPRDLISNINVIVLELKGSETTFMCEYADETATIVEFLNRWITFCQSIISTLTDKTHTCPPCPAPEDEGGPSVFLFPPKPKDTLMISRTPEVTCVVVDVSHEDPEVKFNWYVDGVEVHNAKTKPREEQYNSTYRVVSVLTVLHQDWLNGKEYKCKVSNKALPAPIEKTISKAKGQPREPQVYVYPPSREEMTKNQVSLTCLVKGFYPSDIAVEWESNGQPENNYKTTPPVLDEDGSFALVSKLTVDKSRWQQGNVFSCSVMHEALHNHYTQKSLSLSPGK
Percent IL-2 signal transduction (HEK-IL-2 reporter assay) [1]: 2.5%
Percent T-cell proliferation (PBMC proliferation assay) [1]: 45%

B2: Fab-IL-12(WT)-Fc-CD8 Ab (other)
light: DIQMTQTTSSLSASLGDRVTISCRASQDINNYLNWYQQKSDGTIKLLIYYTSRSYSGVPSRFSGSGSGTDYSLTISNRRQEDIATYFCQQGKTLPWTFGGGTKLEIKRTVAAPSVFIFPPSDEQLKSGTASVVCLLNNFYPREAKVQWKVDNALQSGNSQESVTEQDSKDSTYSLSSTLTLSKADYEKHKVYACEVTHQGLSSPVTKSFNRGEC
heavy 1: EVQLQQSGPELVKPGASVKMSCKASGYTFTDYYMKWVKQSHGKSLEWIGHINPNNDDTFYTQKFKGRATLTVDKSSSTAYMQLNSLTSEDSAVYYCVRDDYDGGWFAYWGQGTLVTVSSASTKGPSVFPLAPSSKSTSGGTAALGCLVKDYFPEPVTVSWNSGALTSGVHTFPAVLQSSGLYSLSSVVTVPSSSLGTQTYICNVNHKPSNTKVDKKVEPKSCDKTHTCPPCPAPEKKGGPSVFLFPPKPKDTLMISRTPEVTCVVVDVSHEDPEVKFNWYVDGVEVHNAKTKPREEQYNSTYRVVSVLTVLHQDWLNGKEYKCKVSNKALPAPIEKTISKAKGQPREPQVYVLPPSREEMTKNQVSLLCLVKGFYPSDIAVEWESNGQPENRYMTWPPVLDSDGSFFLYSKLTVDKSRWQQGNVFSCSVMHEALHNHYTQKSLSLSPGK
heavy 2: EVQLQQSGPELVKPGASVKMSCKASGYTFTDYYMKWVKQSHGKSLEWIGHINPNNDDTFYTQKFKGRATLTVDKSSSTAYMQLNSLTSEDSAVYYCVRDDYDGGWFAYWGQGTLVTVSSASTKGPSVFPLAPSSKSTSGGTAALGCLVKDYFPEPVTVSWNSGALTSGVHTFPAVLQSSGLYSLSSVVTVPSSSLGTQTYICNVNHKPSNTKVDKKVEPKSCDKPGSGIWELKKDVYVVELDWYPDAPGEMVVLTCDTPEEDGITWTLDQSSEVLGSGKTLTIQVKEFGDAGQYTCHKGGEVLSHSLLLLHKKEDGIWSTDILKDQKEPKNKTFLRCEAKNYSGRFTCWWLTTISTDLTFSVKSSRGSSDPQGVTCGAATLSAERVRGDNKEYEYSVECQEDSACPAAEESLPIEVMVDAVHKLKYENYTSSFFIRDIIKPDPPKNLQLKPLKNSRQVEVSWEYPDTWSTPHSYFSLTFCVQVQGKSKREKKDRVFTDKTSATVICRKNASISVRAQDRYYSSSWSEWASVPCSGGGGSGGGGSGGGGSGGGGSGRNLPVATPDPGMFPCLHHSQNLLRAVSNMLQKARQTLEFYPCTSEEIDHEDITKDKTSTVEACLPLELTKNESCLNSRETSFITNGSCLASRKTSFMMALCLSSIYEDLKMYQVEFKTMNAKLLMDPKRQIFLDQNMLAVIDELMQALNFNSETVPQKSSLEEPDFYKTKIKLCILLHAFRIRAVTIDRVMSYLNASDKTHTCPPCPAPEDEGGPSVFLFPPKPKDTLMISRTPEVTCVVVDVSHEDPEVKFNWYVDGVEVHNAKTKPREEQYNSTYRVVSVLTVLHQDWLNGKEYKCKVSNKALPAPIEKTISKAKGQPREPQVYVYPPSREEMTKNQVSLTCLVKGFYPSDIAVEWESNGQPENNYKTTPPVLDEDGSFALVSKLTVDKSRWQQGNVFSCSVMHEALHNHYTQKSLSLSPGK
notes: copies: 2 + 1 + 1
binding result (CD4 on CD4+ T cells): no binding
IL-12 biological activity (IFN-γ release), CD4+ T cells [2]: 21%
IL-12 biological activity (IFN-γ release), CD8+ T cells [2]: 56%

B3: Fab-IL-12(F60A)-Fc-CD8 Ab (other)
light: B2 light
heavy 1: B2 heavy 1
heavy 2: B2 heavy 2 with F288A
notes: copies: 2 + 1 + 1
binding result (CD4 on CD4+ T cells): no binding
IL-12 biological activity (IFN-γ release), CD4+ T cells [2]: 1.2%
IL-12 biological activity (IFN-γ release), CD8+ T cells [2]: 21.9%

B6: anti-PD-1 antibody nivolumab (Opdivo) (antibody, human IgG4 S228P, kappa, V domains shown)
VH: QVQLVESGGGVVQPGRSLRLDCKASGITFSNSGMHWVRQAPGKGLEWVAVIWYDGSKRYYADSVKGRFTISRDNSKNTLFLQMNSLRAEDTAVYYCATNDDYWGQGTLVTVSS
VL: EIVLTQSPATLSLSPGERATLSCRASQSVSSYLAWYQQKPGQAPRLLIYDASNRATGIPARFSGSGSGTDFTLTISSLEPEDFAVYYCQQSSNWPRTFGQGTKVEIKR
Percent IL-2 signal transduction (HEK-IL-2 reporter assay) [3]: 0%
Percent IL-2 signal transduction (HEK-PD-1-IL-2 reporter assay) [3]: 0%

Second part, the binder after the results:

binding result (CD4 on CD4+ T cells): no binding
IL-12 biological activity (IFN-γ release), CD4+ T cells [2]: 0%
IL-12 biological activity (IFN-γ release), CD8+ T cells [2]: 11%
B4: Fab-IL-12(E59A/F60A)-Fc-CD8 Ab (other)
light: B2 light
heavy 1: B2 heavy 1
heavy 2: B2 heavy 2 with E287A, F288A

binding result (CD4 on CD4+ T cells): no binding
IL-12 biological activity (IFN-γ release), CD4+ T cells [2]: 2.1%
IL-12 biological activity (IFN-γ release), CD8+ T cells [2]: 24.2%
B5: Fab-IL-12(E59A)-Fc-CD8 Ab (other)
light: B2 light
heavy 1: B2 heavy 1
heavy 2: B2 heavy 2 with E287A
notes: copies: 2 + 1 + 1
